The experiment deals with human monomeric APP-tagged SIRPα V domain protein (human) (UniProt P78324). The experiment in a line: BiaCORE SPR; binder captured on Protein A, monovalent APP-tagged SIRPα V domain as analyte (Method 2.1).

For one substance, Kd results are on record in patent US20130011401A1.

With “CD47-ECD IgG1 Fc fusion protein (from UniProt Q08722 19-141)”, the Kd is 3000 nM.
